The data set is described as follows: yeast display, Sf9 membrane polyspecificity reagent, FACS + sequencing; frameworks hold sequencing errors. In short, it runs like this: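 After 36–48 hours of galactose induction, yeast (Saccharomyces cerevisiae BJ5465) displaying a synthetic nanobody library were stained at 4 °C for 1 hour with 10% biotinylated, detergent-solubilized Sf9 membrane reagent. Streptavidin microbeads enriched the stained cells before FACS sorting into low and high (top ~1%) gates on anti-HA and streptavidin fluorescence. Each clone's polyreactivity label reflects its gate of origin.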
As for “QVQLVESGGGLVQAGGSLRLSCAASGSIFATYGMGWYRQAPGKERELVAAITSSGGSTYYADSVKGRFTISRDNAKNTVYLQMNSLKPEDTAVYYCAADSYIIWYGTVVSYGEDSWGQGTQVTVSS”, the “polyreactivity (PSR sort gate)” value was “low polyreactivity”.

With “QVQLVESGGGLVQAGGSLRLSCAASGSIFAVYAMGWYRQAPGKERELVAAISSRGSSTYYADSVKGRFTISRDNAKNTVYLQMNSLIPEDTEVYYCAARPGIRSYPPGYGYWGQGTQVTVSS”, the “polyreactivity (PSR sort gate)” value is “low polyreactivity”.

In the case of “QVQLVESGGGLVQAGGSLRLSCAASGSIFAVYAMGWYRQAPGKERELVASISRTGTTNYADSVKGRFTISRDNAKNTVYLQMNSLKPEDSAVYYCNADAYLYYKYHWGFTFYQYVYWGQGTEVTVSS”, the “polyreactivity (PSR sort gate)” value is listed as “low polyreactivity”.

With “QVQLVESGGGLVQAGGSLRLSCAASGSIFAVYAMGWYRQAPGKERELVASISRTGTTNYADSVKGRFTISRDNAKNTVYLQMYSLKPEDTAVYYCAARPGSWYPSVPSYNYWGQGTQVTVSS”, the “polyreactivity (PSR sort gate)” value was “low polyreactivity”.

Regarding “QVQLVESGGGLVQAGGSLRLSCAASGSIFAVYAMGWYRQAPGKERVLVAASSTDYADSVKGRFTISRDNAKNTVYLQMNSLKTEDTAVYYCAKVGFGIPGGFYYWGQGTQVTVSS”, the “polyreactivity (PSR sort gate)” value is “low polyreactivity”.

For the sequence “QVQLVESGGGLVQAGGSLRLSCAASGSIFAWNAMGWYRQAPGKERELVAAIRWSSGRTNYADSVKGRFTISRDNAKNTVYLQMNSLKPEDTAVYYCNARVVNYFRPRTGAREYDYWGQGTQVTVSS”, the “polyreactivity (PSR sort gate)” value is listed as “high polyreactivity”.

Turning to “QVQLVESGGGLVQAGGSLRLSCAASGSIFAWYAMGWYRQAPGKERELVAAIRFRGGSTYYADSVKGRFTISRDNAKNTVYLQMNSLKPEDTAVYYCAGYYWYRSYYWGQGTQVTVSS”, the “polyreactivity (PSR sort gate)” value was “high polyreactivity”.

On to “QVQLVESGGGLVQAGGSLRLSCAASGSIFAYAMGWYRQAPGKQRELVAGISSSGGRTYYADSVKGRFTISRDNAKNSVYLQMNSLKPEDTAVYYCAARAQSPPYGYWGQGTQVTVSS”, for which the “polyreactivity (PSR sort gate)” value is “high polyreactivity”.

In the case of “QVQLVESGGGLVQAGGSLRLSCAASGSIFAYNAMGWYRQAPGKVREFVAVITRSDDSTYADSVKGRFTISRDNAKNTVYLQMNSLKPEDTAVYYCAAQPFDIDGGYRVDYWRQGTQVTVSS”, the “polyreactivity (PSR sort gate)” value is reported as “low polyreactivity”.

Take “QVQLVESGGGLVQAGGSLRLSCAASGSIFAYNDMGWYRQAPGKERELVAAIRNGGRTNYADSVKGRFTISRDNAKNTVYLQMNSLKPEDTAVDYWAALNYYGSDYWGQGTQVTVSS”: the “polyreactivity (PSR sort gate)” value was “high polyreactivity”.

“QVQLVESGGGLVQAGGSLRLSCAASGSIFAYYAMGWYRQAPGKERELVAAISRRGATTYYSDSVKGRFTISRDNAKNTVYLQMNSLKPEDTAVYYCAARTPYWTSYLRYWGQGTQVTVSS”: the “polyreactivity (PSR sort gate)” value is listed as “high polyreactivity”.

With “QVQLVESGGGLVQAGGSLRLSCAASGSIFAYYAMGWYRQAPGKERELVAAISSGGSTNYADSVKGRFTISRDNAKNPVYLQMNSLKPEDTAVYDCAKRSYYGLTYYSWGQGTQVTVSS”, the “polyreactivity (PSR sort gate)” value was “low polyreactivity”.

“QVQLVESGGGLVQAGGSLRLSCAASGSIFAYYAMGWYRQAPGKERELVARITYSTDGTYYADSVKGRFTISRDNAKNTVYLQMNSLKPEDTAVYYCAVDTWWGFKRYKFDYWGQGTQVTVSS”: the “polyreactivity (PSR sort gate)” value is “low polyreactivity”.

“QVQLVESGGGLVQAGGSLRLSCAASGSIFAYYAMGWYRQAPGKERELVAYISRSGGITYYADSVKGRFTLSRDNAKNTVYLQMNSLKPVDTAVDYCAARYSVRPISIYPFDFGYWGQGTQVTVSS”: the “polyreactivity (PSR sort gate)” value was “low polyreactivity”.

For the sequence “QVQLVESGGGLVQAGGSLRLSCAASGSIFDDYAMGWYRKAPGKERELVAAITSGGSTYYADSVKGRFTISRDNAKNTVYLQMNSLKPEDTAVYYRATRYHWSSSFAPVGAYGYWGQGTQVTVSS”, the “polyreactivity (PSR sort gate)” value is “low polyreactivity”.

In the case of “QVQLVESGGGLVQAGGSLRLSCAASGSIFDDYAMGWYRQAPGKERELVAAIDYTGGSTYYADSVKGRFTISRDNAKNTVYLQMNSLIPEDTAVYYCAAEVRVYYYLGGGYSWGQGTQVTVSS”, the “polyreactivity (PSR sort gate)” value is listed as “low polyreactivity”.

For “QVQLVESGGGLVQAGGSLRLSCAASGSIFDDYAMGWYRQAPGKERELVAAISWSGGRPYYADSVKGRFTNSRDNAKNTVYLPMNSLKPEDTAVYYCAATTGVRSRRYYYWVQGTQVTVSS”, the “polyreactivity (PSR sort gate)” value is reported as “low polyreactivity”.

Consider “QVQLVESGGGLVQAGGSLRLSCAASGSIFDDYAMGWYRQAPGKERELVAAISWSGGRTYYADSVKGRFTISRDNAKNTVYLQMNSLKPEDTAVYYCAASTGVRSRRYYYWGQGTQVTVSS”, for which the “polyreactivity (PSR sort gate)” value is given as “low polyreactivity”.

In the case of “QVQLVESGGGLVQAGGSLRLSCAASGSIFDDYAMGWYRQAPGKERELVAAITSGGSTYYADSVKGRFTISLDNAKNTVYLQMNSLKPEDTAVYYRATRYHWSSSFAPVGAYGYWGQATQVTVSS”, the “polyreactivity (PSR sort gate)” value is reported as “low polyreactivity”.

Regarding “QVQLVESGGGLVQAGGSLRLSCAASGSIFDENAMGWYRQAPGKERELVAAITSTDSTNYADSVKGRFTISRDNAKNTVYLQMNSLKPEDTAVYYCARDIKHATSYEALYYSDYDYWGQGTQVTVSS”, the “polyreactivity (PSR sort gate)” value is reported as “low polyreactivity”.

In the case of “QVQLVESGGGLVQAGGSLRLSCAASGSIFDFYSMGWYRQAPGKERELVAAISRGGSTYYADSVKGRFTISRDNAKNTVYFLMNSLKPEDTGVDYCAARDGVLVSWLWFWCDSPYGYWGQGTQGTVSS”, the “polyreactivity (PSR sort gate)” value is listed as “low polyreactivity”.

For the sequence “QVQLVESGGGLVQAGGSLRLSCAASGSIFDFYVMGWYRQAPGKERELVAGISEGGDSTYYADSVKGRFTISRDNAKNTVYLQMNSLKPEDTAVYYCAKASAKGSYYWGQGTQVTVSS”, the “polyreactivity (PSR sort gate)” value is “low polyreactivity”.

For the sequence “QVQLVESGGGLVQAGGSLRLSCAASGSIFDGNAMGWYRQAPGKERELVAAITQSGCSTYYADSVKGRFTISRDNAKNTVYFQMNSLKPEDNAVYYCAADVPGVYPYDYWGQGTQVTVSS”, the “polyreactivity (PSR sort gate)” value is “low polyreactivity”.

Consider “QVQLVESGGGLVQAGGSLRLSCAASGSIFDGYAMGWNSQAPGKERELVAAISQRGGSTYYADSVKGRFTISRDNAKNTVYLQINSLKPEETAVYYCAADSSYGTRDYWGQGTQVTVSS”, for which the “polyreactivity (PSR sort gate)” value is recorded as “low polyreactivity”.

Turning to “QVQLVESGGGLVQAGGSLRLSCAASGSIFDGYAMGWYTQAPGKERELVADINNGADTYYADSVKGRFTISRDNAKNTVYLQMYSLKPEDTAVYYCAARYGTDTDIQNVARYDYWGQGTQVTVSS”, the “polyreactivity (PSR sort gate)” value is recorded as “low polyreactivity”.

Regarding “QVQLVESGGGLVQAGGSLRLSCAASGSIFDHNAMGWYRQAPGKEREFFARITSSGGGTYYADSVKGRFTISRDNAKNTVYLQMNSLKPEDTAVYYCAKTYYRQGARYPTMFYYWGQGTQVTVSS”, the “polyreactivity (PSR sort gate)” value was “low polyreactivity”.

As to “QVQLVESGGGLVQAGGSLRLSCAASGSIFDHYAMGWYRQAPGKERELVAAIRTDGSTKYADSVKGRFTISRDNAKNTVYLQMNSLKPEDTAVYYCAATTGYTARWRNRYIYSYWGQGTEVTVSS”, the “polyreactivity (PSR sort gate)” value is “high polyreactivity”.

Consider “QVQLVESGGGLVQAGGSLRLSCAASGSIFDHYTMGWYRQAPGKERELVARISSRGGSTYYADSVKGRFTISRDNAKNTVYLQMNSLKPEDTAVYYCAAYKKLLYYKFGSWGQGTQVTVSS”, for which the “polyreactivity (PSR sort gate)” value is on record as “high polyreactivity”.

Regarding “QVQLVESGGGLVQAGGSLRLSCAASGSIFDIYAMAWYRQAPGKERELVADITSGGRTDYADSVKGRFTISRDNGKNTVYLQMNSLKPEDTAVYYCAADYIWDSVYWYISSYDYWGQGTKVTVSS”, the “polyreactivity (PSR sort gate)” value is given as “low polyreactivity”.

With “QVQLVESGGGLVQAGGSLRLSCAASGSIFDLNTMGWYRQAPGKERELVAAITWGGGSTYYADSVKGRFTISRDNAKNTVYLQMNSLKPEDTAVYYCNVTWSWGEKGRKAYGYWGQGTQVTVSS”, the “polyreactivity (PSR sort gate)” value is listed as “low polyreactivity”.

Source of the values: the nanobody polyreactivity screen of Harvey et al. (2022).
